{
  "source": "patent US20210275498A1",
  "about": "“IMIDAZOLYL ETHANAMIDE PENTANDIOIC ACID FOR USE IN THERAPY OF SYMPTOMS RELATED TO EXPOSURE TO LETHAL RADIATION” (priority 2018, published 2021)",
  "format_in_all_cases": "in vivo",
  "key": {"C57BL/6 mice [1]": {"tested_on": "C57BL/6 mice", "assay": "Mortality / survival to Day 30 after whole-body irradiation (5.8 Gy or 6.0 Gy)", "details": "Group 6 GL (SCx1): 0.34 mg/kg SC SID Day 1, 2, 3, therapeutic, 5.8 Gy", "from_the_text": "Based on a previously reported study (Williams et al. 2010, Plett et al. 2012, Chua et al. 2014, Singh et al., 2015), the mouse model was developed to investigate LD25 and LD50. The whole-body irradiation and selected dose serve as a translational in vivo model mimicking possible radiation exposure to humans following a nuclear incident.\nAnimals (C57BL/6 mice) were supplied by Jackson Laboratories (Bar Harbor, Me. facility). Animals were maintained at SNBL USA (Everett, Wash. facility) as stock prior to study assignment and were screened for health by veterinary staff prior to use on study. 205 animals were assigned to treatment groups.\nOral application of Myelo001 would be conducive for nuclear or other radiation incidents and was chosen for this study. […] The human equivalent dose is estimated to be 4 mg/kg based on allometric calculations.\n(§1) Based on the ARS Scoring SNBL SOP, if the sum of the three parameter scores totaled 8 or higher, the animal was considered moribund and was euthanized with an unscheduled necropsy performed according to the moribund animal SOP.\nCageside mortality checks were conducted per SOP, twice daily after Day −3. Morning and afternoon checks began 2 to 3 hours after the completion of the respective ARS scorings. Individual assessments were only documented for apparently moribund animals by re-scoring, or for found dead animals by removal.\nSurvival data were summarized descriptively and graphically using the Kaplan-Meier method. Further, death rates were tabulated by treatment. The equality of two or more survivor curves was tested with log rank tests. In addition, Cox-regression models were used to estimate hazard ratios, p-values and 95% confidence intervals (95% CI).\nThe focus of the survival analysis is irradiation related death between irradiation on Day 0 and Day 30. Thus, the scheduled necropsies on Day 7 and Day 14 or deaths unrelated to radiation (Animals 2041, 9012 and 9021) were considered as censored events."}, "C57BL/6 mice [2]": {"tested_on": "C57BL/6 mice", "assay": "ARS scoring (posture, coat, behavior) after whole-body irradiation", "parameters": "key to Supporting variable: ARS scores (trend): positive trend (descriptively) +; negative trend (descriptively) −; no difference (descriptively) 0", "details": "Group 6 GL (SCx1): 0.34 mg/kg SC SID Day 1, 2, 3, therapeutic, 5.8 Gy", "procedure": "Scores on a scale of 1 to 4 (minimal, mild, moderate and severe) for posture, coat, and behavior were recorded twice daily per SNBL SOP, beginning on Day −3, except on the day of scheduled necropsy when scoring occurred only once. Observations were performed by 5 individuals during the course of the study.\nAfter Day 0, the first ARS scoring began in the morning and the second ARS scoring began 4 to 6 hours following the completion of the morning ARS scoring. On the day of scheduled necropsy, ARS scoring occurred in the morning, prior to necropsy.\nas §1"}, "C57BL/6 mice [3]": {"tested_on": "C57BL/6 mice", "assay": "Peripheral hematology after whole-body irradiation", "details": "Group 6 GL (SCx1): 0.34 mg/kg SC SID Day 1, 2, 3, therapeutic, 5.8 Gy", "from_the_text": "The primary outcome of this study was mortality and secondary outcomes were changes in hematology (peripheral and bone marrow). The endpoints were chosen to follow Animal Rule requirements that state that animal study endpoint be clearly related to the clinical benefit (generally, the enhancement of survival or prevention of major morbidity). The secondary endpoints were chosen to potentially contribute to an understanding of the disease or condition and a characterization of the treatment effect."}, "C57BL/6 mice [4]": {"tested_on": "C57BL/6 mice", "assay": "Gross pathology and histopathology (testes degeneration, bone marrow cellularity) after whole-body irradiation", "details": "Day 14, insignificant (p=0.078); Group 6 GL (SCx1): 0.34 mg/kg SC SID Day 1, 2, 3, therapeutic, 5.8 Gy", "from_the_text": "(§2) FIG. 13 Testes. (A): Percentage of severity of testes degeneration according to four categories (minimal, mild, moderate and marked) in group 2 (VL (POx1); 2), group 3 (ML (IPx2); 3), group 4 (ML (POx2); 4) and group 5 (ML (POx1); 5). (B): Percentage of severity of testes degeneration according to four categories (minimal, mild, moderate and marked) in group 2 (VL (POx1);2), 6 (GL (SCx1); 6) and 7 (M/GL (PO/SCx1); 7). (C): Percentage of severity of testes degeneration according to four categories (minimal, mild, moderate and marked) in group 8 (VH (POx1); 8 and 9 (MH (POx1); 9).\nas §2, with “14 Bone marrow cellularity.” for “13 Testes.”, “bone marrow cellularity decrease” for “severity of testes degeneration”"}, "C57BL/6 mice [5]": {"tested_on": "C57BL/6 mice", "assay": "Gross pathology and histopathology (testes degeneration, bone marrow cellularity) after whole-body irradiation", "parameters": "key to Supporting variable: Bone marrow celluarity (trend) / Supporting variable: Testes degradation (trend): positive trend (descriptively) +; negative trend (descriptively) −; no difference (descriptively) 0"}, "[6]": {"details": "Day 14 necropsy, Group 6: 5.8 Gy, subcutaneous, 0.34 mg/kg, Days 1, 2 and 3"}, "[7]": {"details": "Group 6 GL (SCx1): 0.34 mg/kg SC SID Day 1, 2, 3, therapeutic, 5.8 Gy"}},
  "data": [
    {"molecule": "G-CSF: Neupogen (Filgrastim; Granulocyte colony-stimulating factor; G-CSF), positive control article, Amgen (protein, UniProt P09919 31-207, looked up, filgrastim, Neupogen (Filgrastim; Granulocyte colony-stimulating factor; G-CSF), positive control article, Amgen) Granulocyte …: TPLGPASSLPQSFLLKCLEQVRKIQGDGAALQEKLVSECATYKLCHPEELVLLGHSLGIPWAPLSSCPSQALQLAGCLSQLHSGLFLYQGLLQALEGISPELGPTLDTLQLDVADFATTIWQQMEELGMAPALQPTQGAMPAFASAFQRRAGGVLVASHLQSFLEVSYRVLRHLAQP", "values": [
      {"measurement": "Dead (irradiation related deaths)", "setting": "C57BL/6 mice [1]", "value": 1},
      {"measurement": "Irradiation related death rate, Rate (per 100 Days)", "setting": "C57BL/6 mice [1]", "value": 0.42, "unit": "per 100 Days"},
      {"measurement": "Survival after 30 days (Kaplan-Meier estimate)", "setting": "C57BL/6 mice [1]", "value": 0.90},
      {"measurement": "Time at Risk", "setting": "C57BL/6 mice [1]", "value": 237, "unit": "days"},
      {"measurement": "Time to 10% death, Time", "setting": "C57BL/6 mice [1]", "value": 12, "unit": "days"},
      {"measurement": "Hazard ratio (Cox regression, risk of radiation induced death)", "setting": "C57BL/6 mice [1]; reference group VL (POx1), 2", "value": 0.72},
      {"measurement": "Quantity ratio of survival probability (dose reduction factor, DRF), day 30, relative to control group", "setting": "C57BL/6 mice [1]; vs VL (POx1), 2", "value": 1.1},
      {"measurement": "ARS scoring for coat", "setting": "C57BL/6 mice [2]; Day 9", "value": "increased percentage of mild grade"},
      {"measurement": "ARS posture score, most frequent grade (mode)", "setting": "C57BL/6 mice [2]; Day 15, control group 2 mild (65%)", "value": "normal"},
      {"measurement": "Supporting variable: ARS scores (trend)", "setting": "C57BL/6 mice [2]", "value": "+"},
      {"measurement": "hemoglobin and hematocrit, red blood cells compared to control group 2", "setting": "C57BL/6 mice [3]; Day 14", "value": "increased"},
      {"measurement": "median WBC and neutrophil count compared to control Group 2", "setting": "C57BL/6 mice [3]; Day 30", "value": "trend in the increase"},
      {"measurement": "testes degeneration, proportion by severity category", "setting": "C57BL/6 mice [4]", "value": "higher proportions of testes in the minimal category"},
      {"measurement": "gross pathology: findings not typical of acute radiation syndrome", "setting": "C57BL/6 mice [5]; [6]", "value": "cysts in spleen were observed"},
      {"measurement": "gross pathology: lesions typical of acute radiation syndrome (red discoloration of organs)", "setting": "C57BL/6 mice [5]; [6]", "value": "no red discoloration in the brain, testes"},
      {"measurement": "bone marrow cellularity decrease, category", "setting": "C57BL/6 mice [5]; Day 30, insignificant, Group 6 GL (SCx1): 0.34 mg/kg SC SID Day 1, 2, 3, therapeutic, 5.8 Gy", "value": "minimal category in sternum and no marked category in femur bone marrow"},
      {"measurement": "Supporting variable: Bone marrow celluarity (trend)", "setting": "C57BL/6 mice [5]; [7]", "value": "+"},
      {"measurement": "Supporting variable: Testes degradation (trend)", "setting": "C57BL/6 mice [5]; [7]", "value": "+"}
    ]}
  ]
}
